{"source": "FireProtDB (doi:10.1002/pro.5560031114)", "proteins": {"B1": {"name": "Regulatory protein rop wild type, P03051 (protein)", "chain": "MTKQEKTALNMARFIRSQTLTLLEKLNELDADEQADICESLHDHADELYRSCLARFGDDGENL"}}, "conditions": "Escherichia coli, pH 7, Thermal, DSC, Na phosphate 100 mM, NaCl 200 mM, reversible: yes, whole UniProt chain shown", "note": "Several values for one entry are separate records, joined by “and”; a condition that tells them apart may be missing. Equal entries are not always repeated."}
{"protein": "B1", "values": [{"measurement": "unfolding free energy", "setting": "74.6 °C", "result": "3.1 kcal/mol and 5.6 kcal/mol"}, {"measurement": "unfolding enthalpy (calorimetric)", "result": "114 kcal/mol and 83.1 kcal/mol and 94.3 kcal/mol"}, {"measurement": "unfolding enthalpy (van 't Hoff)", "result": "132 kcal/mol and 79.8 kcal/mol and 104 kcal/mol"}]}
